This passage reports Kd results from patent US20240108738A1, “BICYCLIC PEPTIDE LIGANDS SPECIFIC FOR NK CELLS” (Bicycle Tx Limited, priority 2021, published 2024).

Numbered stars: 1 amine (or outer) side, 2 acyl side, 3 side chain; on linkers, the order of the positions; unused ones are H or OH. Bridge positions count the residues as written; N and C are the ends. Ends that are not written are not given here. * marks the point of attachment. TBMT = 2,4,6-tris(bromomethyl)-s-triazine, C(c1nc(C[*:2])nc(C[*:3])n1)[*:1]; Pent4ynoyl = C#CCCC(=O)*

The target in assay [1] is Human NKp46 Fc tag (Acro Biosystems, NC1-H5257) (human), O76036. Nature of the assay: SPR Method 1 and/or 2.
Chain of Human NKp46 Fc tag (Acro Biosystems, NC1-H5257) (human), O76036 (O76036 22-255 limits assumed): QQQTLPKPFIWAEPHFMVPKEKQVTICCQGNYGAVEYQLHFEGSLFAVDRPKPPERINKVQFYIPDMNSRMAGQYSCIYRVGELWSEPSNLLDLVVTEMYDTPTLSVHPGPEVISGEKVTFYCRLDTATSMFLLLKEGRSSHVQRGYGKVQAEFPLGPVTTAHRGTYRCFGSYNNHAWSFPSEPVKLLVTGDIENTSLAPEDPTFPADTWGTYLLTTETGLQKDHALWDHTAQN
Assay [2] deals with biotinylated human FcγRIII (CD16a), variant not stated (human) (UniProt P08637). Nature of the assay: SPR Method A.
Chain of biotinylated human FcγRIII (CD16a), variant not stated (human) (P08637 17-208, change not shown): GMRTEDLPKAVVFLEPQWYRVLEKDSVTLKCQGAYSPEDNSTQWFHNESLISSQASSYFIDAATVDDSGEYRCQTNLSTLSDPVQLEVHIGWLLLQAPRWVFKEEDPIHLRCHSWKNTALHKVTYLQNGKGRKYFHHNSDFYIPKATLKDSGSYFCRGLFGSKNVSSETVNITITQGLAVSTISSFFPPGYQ

B1: BCY18299 (peptide)
peptide: ACNLQAACMLTGKVCA
modifications: not checked
As to B1, the Kd in assay [1] was determined as 1800 nM.

B2: BCY13883 (peptide)
peptide: ACRWSVEDPCGAWCAK(Pent4ynoyl)-NH2
modifications: linker 2-10-14 via TBMT (inferred)
Regarding B2, the Kd in assay [2] was 1800 nM.

B3: BCY18302 (peptide)
peptide: ACNLQAPCMLAGKVCA
modifications: not checked
Molecule B3 showed an equilibrium dissociation constant (Kd) in assay [1] of 5380 nM.

B4: BCY19702 (peptide)
peptide: ACNLQAPCMVTGKVCA
modifications: not checked
Consider B4, for which, in assay [1], the Kd came out at 2680 nM.

B5: BCY18277 (peptide)
peptide: ACDLQTHNCQWGICA
modifications: not checked
In assay [1], B5 had a Kd of 1520 nM.

B6: BCY18269 (peptide)
peptide: ACDLTTHNCAWGICA
modifications: not checked
In assay [1], B6 came in with a Kd of 1640 nM.

B7: BCY19718 (peptide)
peptide: CDLTTHNCQWGICA
modifications: not checked
For B7, the Kd in assay [1] was found to be 1110 nM.

B8: BCY15104 (peptide)
peptide: ACLLHEHCPNTHPKMCA
modifications: not checked
B8 returned a Kd in assay [1] of 2880 nM.

B9: BCY18285 (peptide)
peptide: ACDLTTHNCVWGICA
modifications: not checked
For the molecule B9, the Kd in assay [1] amounted to 3760 nM.

B10: BCY18304 (peptide)
peptide: ACNLQAPCMLTGAVCA
modifications: not checked
B10 had a dissociation constant Kd in assay [1] of 1530 nM.

B11: BCY19713 (peptide)
peptide: ACNLQQACMQTGKVCA
modifications: not checked
In the case of B11, the Kd in assay [1] stood at 1830 nM.

B12: BCY18316 (peptide)
peptide: ACNLQAPCMETGKVCA
modifications: not checked
As to B12, the Kd in assay [1] was 1510 nM.

B13: BCY15106 (peptide)
peptide: ACLLHDHCPNTHPIICA
modifications: not checked
B13: the Kd in assay [1] is 2670 nM.

B14: BCY13886 (peptide)
peptide: ACVGLEELGPCSDLCAK(Pent4ynoyl)-NH2
modifications: linker 2-11-15 via TBMT (inferred)
In assay [2], B14 came in with a Kd of 2200 nM.

B15: BCY15102 (peptide)
peptide: ACNLQNPCMKFPCA
modifications: not checked
Consider B15, for which the Kd in assay [1] was found to be 1090 nM.

B16: BCY14454 (peptide)
peptide: ACNLQQACLHTGKVCA
modifications: not checked
B16 returned a Kd in assay [1] of 2760 nM.

B17: BCY19694 (peptide)
peptide: CNLQAPCMLTGKVCA
modifications: not checked
In assay [1], B17 came in with a Kd of 2510 nM.

B18: BCY18301 (peptide)
peptide: ACNLQAPCMATGKVCA
modifications: not checked
For the molecule B18, in assay [1], the Kd came to 4030 nM.

B19: BCY19712 (peptide)
peptide: ACNLQAPCLHTGKVCA
modifications: not checked
As to B19, in assay [1], the Kd is 3140 nM.

B20: BCY18272 (peptide)
peptide: ACDLTTHNCQWGACA
modifications: not checked
Molecule B20 displayed a Kd in assay [1] of 3190 nM.

B21: BCY18295 (peptide)
peptide: CNLQAPCMLTGKVC
modifications: not checked
For B21, the Kd in assay [1] was 6410 nM.

B22: BCY18265 (peptide)
peptide: ACDLATHNCQWGICA
modifications: not checked
The molecule B22 registered a Kd in assay [1] of 1480 nM.

B23: BCY15103 (peptide)
peptide: ACLLHDHCPNTHPKLCA
modifications: not checked
With B23, the Kd in assay [1] turned out to be 1660 nM.

B24: BCY14457 (peptide)
peptide: ACLLHDHCPNTHPKMCA
modifications: not checked
In assay [1], B24 gave a dissociation constant (Kd) of 2270 nM.

B25: BCY15105 (peptide)
peptide: ACLLHDHCPNSHPEICA
modifications: not checked
Molecule B25 had an equilibrium dissociation constant (Kd) in assay [1] of 3730 nM.

B26: BCY19711 (peptide)
peptide: ACNLQAPCMHTGKVCA
modifications: not checked
In assay [1], B26 displayed a Kd of 2750 nM.

B27: BCY18318 (peptide)
peptide: ACNLQAPCMYTGKVCA
modifications: not checked
As for B27, the Kd in assay [1] is 1920 nM.

B28: BCY19695 (peptide)
peptide: KCNLQAPCMLTGKVCA
modifications: not checked
With B28, in assay [1], the Kd was found to be 2380 nM.

B29: BCY14458 (peptide)
peptide: ACDLTTHNCIWGVCA
modifications: not checked
In the case of B29, in assay [1], the equilibrium dissociation constant (Kd) is 1260 nM.
